Read-outs that look alike come from different tables or passages of the source.
T1: VEGF121 (hVEGF121, aa 207-327) (human, UniProt P15692 207-327)
T1 chain: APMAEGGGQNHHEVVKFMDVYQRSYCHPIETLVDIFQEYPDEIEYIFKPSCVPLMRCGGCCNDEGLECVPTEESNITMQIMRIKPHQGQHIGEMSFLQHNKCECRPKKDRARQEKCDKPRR

T2: VEGF110 (hVEGF110, aa 207-318) (human, UniProt P15692 207-318)
T2 sequence (looked up): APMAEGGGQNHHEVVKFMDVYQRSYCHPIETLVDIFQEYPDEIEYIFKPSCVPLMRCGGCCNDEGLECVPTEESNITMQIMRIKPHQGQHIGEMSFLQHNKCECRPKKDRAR


Tests used:
[1] = target: T1, VEGF121 (hVEGF121, aa 207-327); assay: cell-based or functional assay
[2] = target: T2, VEGF110 (hVEGF110, aa 207-318); assay: cell-based or functional assay
human VEGF165 (REGN110) [3] = target: T3, human VEGF165 (REGN110) (human, UniProt P15692 207-395); assay: SPR, Biacore, 25 C; trap captured on anti-VEGFR1 mAb surface, hVEGF165 injected; 1:1 fit
T3 construct: also called hVEGF165; hVEGF165(M1-R191)
Method: (§1) Experimental Procedure. Equilibrium dissociation constants (KD values) for human VEGF₁₆₅ binding to various purified VEGF mini-trap constructs were determined using a real-time surface plasmon resonance biosensor using a Biacore 3000 instrument. All binding studies were performed in 10 mM HEPES, 150 mM NaCl, 3 mM EDTA, and 0.05% v/v Surfactant Tween-20, pH 7.4 (HBS-ET) running buffer at 25° C. The Biacore sensor surface was first derivatized by amine coupling with a monoclonal mouse anti-VEGFR1 antibody to capture VEGF mini-trap constructs. Binding studies were performed on the human VEGF reagent, human VEGF₁₆₅ (human VEGF₁₆₅; SEQ ID NO: 31). Different concentrations of VEGF₁₆₅ reagent, prepared in HBS-ET running buffer (2 nM — 62.5 pM; 2-fold serial dilution for human VEGF₁₆₅), were injected over an anti-VEGFR1-captured VEGF mini-trap construct surface for 1.8 minutes at a flow rate of 90 μL/minute, while the dissociation of VEGF mini-trap constructs bound VEGF₁₆₅ reagent was monitored for 60 minutes in HBS-ET running buffer. Kinetic association (kₐ) and dissociation (kd) rate constants were determined by fitting the real-time sensorgrams to a 1:1 binding model using Scrubber 2.0c curve fitting software. Binding dissociation equilibrium constants (KD) and dissociative half-lives (t½) were calculated from the kinetic rate constants as: […]

human VEGF165 (REGN110) [4] = target: T3, human VEGF165 (REGN110); assay: SPR, Biacore 3000, 25 C; trap captured on anti-VEGFR1 mAb surface, hVEGF165 injected
human VEGF165 (REGN110) [5] = target: T3, human VEGF165 (REGN110); assay: SPR, Biacore 3000, 25 C; trap captured on anti-VEGFR1 mAb surface, hVEGF165 injected; 1:1 fit
human VEGF165 (REGN110) [6] = target: T3, human VEGF165 (REGN110); assay: SPR, Biacore, 25 C; trap captured on anti-VEGFR1 mAb surface, hVEGF165 injected
Method: as §1

[7] = target: T1, VEGF121 (hVEGF121, aa 207-327); assay: cell-based or functional assay
[8] = target: T2, VEGF110 (hVEGF110, aa 207-318); assay: cell-based or functional assay; remark: listed apart in the source
human VEGF165 (REGN110) [9] = target: T3, human VEGF165 (REGN110); assay: cell-based or functional assay
Target sequence in this assay (P15692 other isoform, or with tags, fused parts or gaps): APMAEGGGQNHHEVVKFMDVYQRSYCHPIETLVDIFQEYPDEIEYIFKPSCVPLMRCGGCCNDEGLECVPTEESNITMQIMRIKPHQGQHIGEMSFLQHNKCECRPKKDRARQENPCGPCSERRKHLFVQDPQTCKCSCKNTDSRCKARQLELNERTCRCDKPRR

[10] = target: T2, VEGF110 (hVEGF110, aa 207-318); assay: cell-based or functional assay; remark: listed apart in the source

Binder | IC50 (M), inhibition of VEGFR1 signaling (luciferase), 20 pM VEGF121 [1] [M] | IC50 (M), inhibition of VEGFR1 signaling (luciferase), 20 pM VEGF110 [2] [M] | Kd (human VEGF165 (REGN110) [3]) [nM] | koff (human VEGF165 (REGN110) [3]) [s⁻¹] | kon (human VEGF165 (REGN110) [3]) [M⁻¹ s⁻¹] | t1/2 (dissociative half-life) (human VEGF165 (REGN110) [3]) [h] | 100 nM hVEGF165 Bound (human VEGF165 (REGN110) [4]) [RU] | Kd (human VEGF165 (REGN110) [5]) [nM] | koff (human VEGF165 (REGN110) [5]) [s⁻¹] | kon (human VEGF165 (REGN110) [5]) [M⁻¹ s⁻¹] | t½ (dissociative half-life) (human VEGF165 (REGN110) [5]) [h] | 2nM hVEGF165 Bound (human VEGF165 (REGN110) [6]) [RU] | IC50 (M), inhibition of VEGFR1 signaling (luciferase), 20 pM VEGF121 [7] [M] | IC50 (M), inhibition of VEGFR1 signaling (luciferase), 20 pM VEGF110 [8] [M] | IC50 (M), inhibition of VEGFR1 signaling (luciferase), 20 pM VEGF165 (human VEGF165 (REGN110) [9]) [M] | IC50 (M), inhibition of VEGFR1 signaling (luciferase), 20 pM VEGF110 [10] [M]
REGN6824 (hVEGF minitrap-G4Sx3-hVEGF minitrap-mmH) (receptor, Monomeric single chain; also called REGN6824 (G4Sx3 linker); single chain mini-trap with (G4S)3 linker and C-terminal mmH tag) SDTGRPFVEMYSEIPEIIHMTEGRELVIPCRVTSPNITVTLKKFPLDTLIPDGKRIIWDSRKGFIISNATYKEIGLLTCEATVNGHLYKTNYLTHRQTNTIIDVVLSPSHGIELSVGEKLVLNCTARTELNVGIDFNWEYPSSKHQHKKLVNRDLKTQSGSEMKKFLSTLTIDGVTRSDQGLYTCAASSGLMTKKNSTFVRVHEKGGGGSGGGGSGGGGSSDTGRPFVEMYSEIPEIIHMTEGRELVIPCRVTSPNITVTLKKFPLDTLIPDGKRIIWDSRKGFIISNATYKEIGLLTCEATVNGHLYKTNYLTHRQTNTIIDVVLSPSHGIELSVGEKLVLNCTARTELNVGIDFNWEYPSSKHQHKKLVNRDLKTQSGSEMKKFLSTLTIDGVTRSDQGLYTCAASSGLMTKKNSTFVRVHEKEQKLISEEDLGGEQKLISEEDLHHHHHH | 2.44e-10 | 2.22e-10 | 0.0861 | 0.000554 | 6.44e+06 | 0.348 | 33 | 0.0861 | 0.000554 | 6.44e+06 | 0.348 | 33 | – | – | – | –
REGN7483^F (homodimer mini-trap, FabRICATOR cleaved from aflibercept) (receptor, N-linked glycans at N36, N68, N123, N196 (Table C), Disulfide-linked homodimer made by IdeS cleavage of aflibercept; also called dimer mini-trap from FabRICATOR (IdeS) cleavage of REGN3) SDTGRPFVEMYSEIPEIIHMTEGRELVIPCRVTSPNITVTLKKFPLDTLIPDGKRIIWDSRKGFIISNATYKEIGLLTCEATVNGHLYKTNYLTHRQTNTIIDVVLSPSHGIELSVGEKLVLNCTARTELNVGIDFNWEYPSSKHQHKKLVNRDLKTQSGSEMKKFLSTLTIDGVTRSDQGLYTCAASSGLMTKKNSTFVRVHEKDKTHTCPPCPAPELLG | – | – | 0.00132 | ≥ 1e-05 | 7.59e+06 | ≥ 19.2 | – | ≤ 0.00132 | ≤ 1e-05 | 7.58e+06 | ≥ 19.2 | – | – | – | 1.23e-11 | 1.04e-11

Now from value to binder:

IC50 (M), inhibition of VEGFR1 signaling (luciferase), 20 pM VEGF121 [1] [M] | IC50 (M), inhibition of VEGFR1 signaling (luciferase), 20 pM VEGF110 [2] [M] | Kd (human VEGF165 (REGN110) [3]) [nM] | koff (human VEGF165 (REGN110) [3]) [s⁻¹] | kon (human VEGF165 (REGN110) [3]) [M⁻¹ s⁻¹] | t1/2 (dissociative half-life) (human VEGF165 (REGN110) [3]) [h] | 100 nM hVEGF165 Bound (human VEGF165 (REGN110) [4]) [RU] | Kd (human VEGF165 (REGN110) [5]) [nM] | koff (human VEGF165 (REGN110) [5]) [s⁻¹] | kon (human VEGF165 (REGN110) [5]) [M⁻¹ s⁻¹] | t½ (dissociative half-life) (human VEGF165 (REGN110) [5]) [h] | 2nM hVEGF165 Bound (human VEGF165 (REGN110) [6]) [RU] | IC50 (M), inhibition of VEGFR1 signaling (luciferase), 20 pM VEGF121 [7] [M] | IC50 (M), inhibition of VEGFR1 signaling (luciferase), 20 pM VEGF110 [8] [M] | IC50 (M), inhibition of VEGFR1 signaling (luciferase), 20 pM VEGF165 (human VEGF165 (REGN110) [9]) [M] | IC50 (M), inhibition of VEGFR1 signaling (luciferase), 20 pM VEGF110 [10] [M] | Binder
– | – | 0.0138 | 9.79e-05 | 7.1e+06 | 1.97 | – | – | – | – | – | 40 | 7.71e-11 | 7.88e-11 | – | – | REGN7991 (hVEGF minitrap-G4Sx9-hVEGF minitrap) (receptor, Monomeric single chain, no tag; also called REGN7991 (G4Sx9 linker); single chain mini-trap with (G4S)9, no tag) SDTGRPFVEMYSEIPEIIHMTEGRELVIPCRVTSPNITVTLKKFPLDTLIPDGKRIIWDSRKGFIISNATYKEIGLLTCEATVNGHLYKTNYLTHRQTNTIIDVVLSPSHGIELSVGEKLVLNCTARTELNVGIDFNWEYPSSKHQHKKLVNRDLKTQSGSEMKKFLSTLTIDGVTRSDQGLYTCAASSGLMTKKNSTFVRVHEKGGGGSGGGGSGGGGSGGGGSGGGGSGGGGSGGGGSGGGGSGGGGSSDTGRPFVEMYSEIPEIIHMTEGRELVIPCRVTSPNITVTLKKFPLDTLIPDGKRIIWDSRKGFIISNATYKEIGLLTCEATVNGHLYKTNYLTHRQTNTIIDVVLSPSHGIELSVGEKLVLNCTARTELNVGIDFNWEYPSSKHQHKKLVNRDLKTQSGSEMKKFLSTLTIDGVTRSDQGLYTCAASSGLMTKKNSTFVRVHEK
– | – | 0.0153 | 9.7e-05 | 6.3e+06 | 1.98 | – | – | – | – | – | 22 | 2.37e-11 | 3.42e-11 | – | – | REGN7992 (hVEGF minitrap-G4Sx12-hVEGF minitrap) (receptor, Monomeric single chain, no tag; also called REGN7992 (G4Sx12 linker); single chain mini-trap with (G4S)12, no tag) SDTGRPFVEMYSEIPEIIHMTEGRELVIPCRVTSPNITVTLKKFPLDTLIPDGKRIIWDSRKGFIISNATYKEIGLLTCEATVNGHLYKTNYLTHRQTNTIIDVVLSPSHGIELSVGEKLVLNCTARTELNVGIDFNWEYPSSKHQHKKLVNRDLKTQSGSEMKKFLSTLTIDGVTRSDQGLYTCAASSGLMTKKNSTFVRVHEKGGGGSGGGGSGGGGSGGGGSGGGGSGGGGSGGGGSGGGGSGGGGSGGGGSGGGGSGGGGSSDTGRPFVEMYSEIPEIIHMTEGRELVIPCRVTSPNITVTLKKFPLDTLIPDGKRIIWDSRKGFIISNATYKEIGLLTCEATVNGHLYKTNYLTHRQTNTIIDVVLSPSHGIELSVGEKLVLNCTARTELNVGIDFNWEYPSSKHQHKKLVNRDLKTQSGSEMKKFLSTLTIDGVTRSDQGLYTCAASSGLMTKKNSTFVRVHEK
